Source: paper PMC5897841, “Development of a multipurpose scaffold for the display of peptide loops” (Protein Engineering, Design and Selection, 2017)

Assays:
CK2α kinase [1] = molecular target: T1, CK2α kinase (Homo sapiens, UniProt P68400); test: Sedimentation velocity AUC, CK2α / RAD-CK2β; assay type: binding; conditions: 20°C, 20 mM HEPES pH 7.5, 500 mM NaCl
T1 construct: made in house; host or cells: E. coli BL21(DE3) with pUBS520; pBAT4 plasmid
T1 sequence (P68400 2-329): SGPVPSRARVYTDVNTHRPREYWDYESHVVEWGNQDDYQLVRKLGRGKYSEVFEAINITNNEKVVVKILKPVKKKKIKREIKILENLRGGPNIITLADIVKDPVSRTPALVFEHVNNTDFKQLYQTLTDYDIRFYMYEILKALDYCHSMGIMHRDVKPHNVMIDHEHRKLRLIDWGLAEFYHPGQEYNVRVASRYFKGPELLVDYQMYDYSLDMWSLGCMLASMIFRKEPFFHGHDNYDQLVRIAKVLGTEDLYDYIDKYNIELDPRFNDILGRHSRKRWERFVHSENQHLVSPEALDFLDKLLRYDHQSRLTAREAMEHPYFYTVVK

CK2α kinase [2] = molecular target: T1, CK2α kinase; test: Analytical SEC, CK2α / RAD-CK2β; assay type: binding; conditions: Superdex 75 5/150, 20 mM HEPES pH 7.5, 500 mM NaCl, calibrated
Experimental: Purified protein samples, either as individual proteins or equimolar mixtures, were separated by analytical SEC over an Superdex 75 5/150 size exclusion column (GE Healthcare) equilibrated with 20 mM HEPES pH 7.5, 500 mM NaCl. Fractions from the peaks from each run were analyzed by SDS-PAGE with purified proteins as standards. The column was calibrated using molecular weight standards (blue dextran, bovine serum albumin, carbonic anhydrase, cytochrome C and aprotonin, Sigma-Aldrich cat. MWGF70) and the calibration curve used to estimate the molecular weights of the three samples (Fig. S5).
Figure S5. MW estimation of CK2α, RAD-CK2β(186-200) and their complexes by SEC Calibration Superdex 75 5/150 HR column
Figure S5. Molecular weight protein standards (Sigma -Aldrich, cat. no. MWGF70, gray diamonds in the plot) were used to calibrate Superdex 75 5/150 column. Blue dextran was used to define the void volume (1.24 ml)and total volume was assumed to be […]. Elution positions of CK2α,(blue […]
main article, were used to estimate the molecular weights of the proteins from the calibration curve. […]

Sedimentation coefficient (s-value) (CK2α kinase [1]; SV AUC, 50 000 rpm, 280 nm, CK2α 6 μM, RAD-CK2β 14.3 μM, complex 5 μM each): 3.0 S | Molar mass from SV AUC (CK2α kinase [1]; boundary spreading): 41.5 kDa
B1: CK2α kinase: Human CK2α kinase (residues 2-329) (protein)
chain: SGPVPSRARVYTDVNTHRPREYWDYESHVVEWGNQDDYQLVRKLGRGKYSEVFEAINITNNEKVVVKILKPVKKKKIKREIKILENLRGGPNIITLADIVKDPVSRTPALVFEHVNNTDFKQLYQTLTDYDIRFYMYEILKALDYCHSMGIMHRDVKPHNVMIDHEHRKLRLIDWGLAEFYHPGQEYNVRVASRYFKGPELLVDYQMYDYSLDMWSLGCMLASMIFRKEPFFHGHDNYDQLVRIAKVLGTEDLYDYIDKYNIELDPRFNDILGRHSRKRWERFVHSENQHLVSPEALDFLDKLLRYDHQSRLTAREAMEHPYFYTVVK
Molecular weight equivalent of SEC elution volume (CK2α kinase [2]): 45.7 kDa
